# Numbered stars: 1 amine (or outer) side, 2 acyl side, 3 side chain; on linkers, the order of the positions; unused ones are H or OH. Bridge positions count the residues as written; N and C are the ends. Side chains are listed from the residue outwards. Ends that are not written are not given here. * marks the point of attachment. C20 diacid = O=C(O)CCCCCCCCCCCCCCCCCCC(=O)*; γGlu = O=C(O)[C@H](CCC(=O)[*:2])N[*:1]; AEEA = NCCOCCOCC(=O)O
# T1: rat calcitonin receptor (rat, UniProt P32214 25-516)
# T1 construct: whole, on cells; Membranes prepared from transiently transfected BHK tk'ts 13 cells (Assay VIII); also called rCTR; rCT
# T1 sequence (looked up): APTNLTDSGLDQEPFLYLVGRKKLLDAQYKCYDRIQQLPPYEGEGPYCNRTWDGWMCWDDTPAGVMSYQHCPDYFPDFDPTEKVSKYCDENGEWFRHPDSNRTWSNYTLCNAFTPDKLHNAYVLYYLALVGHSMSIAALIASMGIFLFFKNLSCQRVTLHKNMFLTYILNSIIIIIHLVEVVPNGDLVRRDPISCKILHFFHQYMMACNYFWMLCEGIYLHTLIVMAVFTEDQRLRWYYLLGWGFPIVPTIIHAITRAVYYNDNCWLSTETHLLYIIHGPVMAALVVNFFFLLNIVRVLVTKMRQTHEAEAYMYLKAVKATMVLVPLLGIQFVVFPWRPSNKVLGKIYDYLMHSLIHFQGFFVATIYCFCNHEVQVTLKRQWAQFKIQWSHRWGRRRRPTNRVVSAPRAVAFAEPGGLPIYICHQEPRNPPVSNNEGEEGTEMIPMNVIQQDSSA
# T2: human calcitonin receptor (human, UniProt P30988 25-474)
# T2 construct: whole, on cells; Membranes prepared from a stably transfected BHK cell line (Assay VII); also called hCTR; hCT
# T2 sequence (looked up): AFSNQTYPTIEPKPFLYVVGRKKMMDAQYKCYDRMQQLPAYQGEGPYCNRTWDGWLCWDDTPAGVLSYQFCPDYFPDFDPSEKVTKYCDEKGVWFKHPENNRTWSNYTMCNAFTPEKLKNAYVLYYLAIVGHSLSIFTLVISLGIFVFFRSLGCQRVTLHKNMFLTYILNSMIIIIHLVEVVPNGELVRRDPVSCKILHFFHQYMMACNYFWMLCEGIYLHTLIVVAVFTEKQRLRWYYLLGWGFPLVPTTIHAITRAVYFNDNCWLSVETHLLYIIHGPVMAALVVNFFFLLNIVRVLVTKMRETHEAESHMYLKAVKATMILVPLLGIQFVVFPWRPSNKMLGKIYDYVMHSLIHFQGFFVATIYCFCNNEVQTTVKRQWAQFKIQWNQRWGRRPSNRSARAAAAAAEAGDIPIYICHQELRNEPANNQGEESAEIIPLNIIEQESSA
# T3: rat amylin receptor (rat calcitonin receptor + rat RAMP 3) (rat, UniProt P32214 25-516; Q9JJ73 23-147)
# T3 construct: whole, on cells; Membranes prepared from transiently transfected BHK tk'ts 13 cells (Assay VI); also called rAmylin-R; rAmylin
# T3 sequence (looked up) 1: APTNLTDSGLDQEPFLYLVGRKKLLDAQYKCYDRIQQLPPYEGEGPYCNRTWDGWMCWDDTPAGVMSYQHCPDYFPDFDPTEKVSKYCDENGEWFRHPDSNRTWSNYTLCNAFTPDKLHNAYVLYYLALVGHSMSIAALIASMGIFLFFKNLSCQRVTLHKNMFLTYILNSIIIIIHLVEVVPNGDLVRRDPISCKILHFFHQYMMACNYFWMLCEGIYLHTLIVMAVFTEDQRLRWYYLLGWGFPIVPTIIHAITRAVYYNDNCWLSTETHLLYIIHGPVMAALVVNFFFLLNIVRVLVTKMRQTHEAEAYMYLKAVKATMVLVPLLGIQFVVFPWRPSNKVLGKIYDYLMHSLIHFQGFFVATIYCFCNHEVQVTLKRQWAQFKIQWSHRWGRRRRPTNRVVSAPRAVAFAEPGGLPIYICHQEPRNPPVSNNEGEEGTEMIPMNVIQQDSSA
# T3 sequence (looked up) 2: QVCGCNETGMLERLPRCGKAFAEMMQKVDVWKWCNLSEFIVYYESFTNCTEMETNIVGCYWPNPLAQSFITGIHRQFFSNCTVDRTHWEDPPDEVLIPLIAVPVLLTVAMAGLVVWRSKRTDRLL
# B1: N^ε1-[2-[2-[2-[[(4S)-4-carboxy-4-(19-carboxynonadecanoylamino)butanoyl]amino]ethoxy]ethoxy]acetyl]-[Thr14,Arg17,Pro21,Pro27,Pro31]-h-amylin (peptide)
# peptide: K([AEEA-γGlu-C20 diacid])CNTATCATQRLATFLRHSSPNFGAIPSSTPVGSNTY-NH2
# modifications: disulfide 2-7; N-terminus assumed
# SMILES: CC[C@H](C)[C@H](NC(=O)[C@H](C)NC(=O)CNC(=O)[C@H](Cc1ccccc1)NC(=O)[C@H](CC(N)=O)NC(=O)[C@@H]1CCCN1C(=O)[C@H](CO)NC(=O)[C@H](CO)NC(=O)[C@H](Cc1c[nH]cn1)NC(=O)[C@H](CCCNC(=N)N)NC(=O)[C@H](CC(C)C)NC(=O)[C@H](Cc1ccccc1)NC(=O)[C@@H](NC(=O)[C@H](C)NC(=O)[C@H](CC(C)C)NC(=O)[C@H](CCCNC(=N)N)NC(=O)[C@H](CCC(N)=O)NC(=O)[C@@H](NC(=O)[C@H](C)NC(=O)[C@@H]1CSSC[C@H](NC(=O)[C@@H](N)CCCCNC(=O)COCCOCCNC(=O)CC[C@H](NC(=O)CCCCCCCCCCCCCCCCCCC(=O)O)C(=O)O)C(=O)N[C@@H](CC(N)=O)C(=O)N[C@@H]([C@@H](C)O)C(=O)N[C@@H](C)C(=O)N[C@@H]([C@@H](C)O)C(=O)N1)[C@@H](C)O)[C@@H](C)O)C(=O)N1CCC[C@H]1C(=O)N[C@@H](CO)C(=O)N[C@@H](CO)C(=O)N[C@H](C(=O)N1CCC[C@H]1C(=O)N[C@H](C(=O)NCC(=O)N[C@@H](CO)C(=O)N[C@@H](CC(N)=O)C(=O)N[C@H](C(=O)N[C@@H](Cc1ccc(O)cc1)C(N)=O)[C@@H](C)O)C(C)C)[C@@H](C)O
# notes: Analogue of human amylin; also called compound 75
# B2: N^ε1-[(4S)-4-carboxy-4-(19-carboxynonadecanoylamino)butanoyl]-[Arg14,Arg17,Pro21,Pro27,Pro34]-h-amylin (peptide)
# peptide: K([γGlu-C20 diacid])CNTATCATQRLARFLRHSSPNFGAIPSSTNVGPNTY-NH2
# modifications: disulfide 2-7; N-terminus assumed
# SMILES: CC[C@H](C)[C@H](NC(=O)[C@H](C)NC(=O)CNC(=O)[C@H](Cc1ccccc1)NC(=O)[C@H](CC(N)=O)NC(=O)[C@@H]1CCCN1C(=O)[C@H](CO)NC(=O)[C@H](CO)NC(=O)[C@H](Cc1c[nH]cn1)NC(=O)[C@H](CCCNC(=N)N)NC(=O)[C@H](CC(C)C)NC(=O)[C@H](Cc1ccccc1)NC(=O)[C@H](CCCNC(=N)N)NC(=O)[C@H](C)NC(=O)[C@H](CC(C)C)NC(=O)[C@H](CCCNC(=N)N)NC(=O)[C@H](CCC(N)=O)NC(=O)[C@@H](NC(=O)[C@H](C)NC(=O)[C@@H]1CSSC[C@H](NC(=O)[C@@H](N)CCCCNC(=O)CC[C@H](NC(=O)CCCCCCCCCCCCCCCCCCC(=O)O)C(=O)O)C(=O)N[C@@H](CC(N)=O)C(=O)N[C@@H]([C@@H](C)O)C(=O)N[C@@H](C)C(=O)N[C@@H]([C@@H](C)O)C(=O)N1)[C@@H](C)O)C(=O)N1CCC[C@H]1C(=O)N[C@@H](CO)C(=O)N[C@@H](CO)C(=O)N[C@H](C(=O)N[C@@H](CC(N)=O)C(=O)N[C@H](C(=O)NCC(=O)N1CCC[C@H]1C(=O)N[C@@H](CC(N)=O)C(=O)N[C@H](C(=O)N[C@@H](Cc1ccc(O)cc1)C(N)=O)[C@@H](C)O)C(C)C)[C@@H](C)O
# notes: Analogue of human amylin; also called compound 65
# B3: N^ε1-[(4S)-4-carboxy-4-(19-carboxynonadecanoylamino)butanoyl]-[Ala14,Arg17,Pro21,Pro27,His34]-h-amylin (peptide)
# peptide: K([γGlu-C20 diacid])CNTATCATQRLAAFLRHSSPNFGAIPSSTNVGHNTY-NH2
# modifications: disulfide 2-7; N-terminus assumed
# SMILES: CC[C@H](C)[C@H](NC(=O)[C@H](C)NC(=O)CNC(=O)[C@H](Cc1ccccc1)NC(=O)[C@H](CC(N)=O)NC(=O)[C@@H]1CCCN1C(=O)[C@H](CO)NC(=O)[C@H](CO)NC(=O)[C@H](Cc1c[nH]cn1)NC(=O)[C@H](CCCNC(=N)N)NC(=O)[C@H](CC(C)C)NC(=O)[C@H](Cc1ccccc1)NC(=O)[C@H](C)NC(=O)[C@H](C)NC(=O)[C@H](CC(C)C)NC(=O)[C@H](CCCNC(=N)N)NC(=O)[C@H](CCC(N)=O)NC(=O)[C@@H](NC(=O)[C@H](C)NC(=O)[C@@H]1CSSC[C@H](NC(=O)[C@@H](N)CCCCNC(=O)CC[C@H](NC(=O)CCCCCCCCCCCCCCCCCCC(=O)O)C(=O)O)C(=O)N[C@@H](CC(N)=O)C(=O)N[C@@H]([C@@H](C)O)C(=O)N[C@@H](C)C(=O)N[C@@H]([C@@H](C)O)C(=O)N1)[C@@H](C)O)C(=O)N1CCC[C@H]1C(=O)N[C@@H](CO)C(=O)N[C@@H](CO)C(=O)N[C@H](C(=O)N[C@@H](CC(N)=O)C(=O)N[C@H](C(=O)NCC(=O)N[C@@H](Cc1c[nH]cn1)C(=O)N[C@@H](CC(N)=O)C(=O)N[C@H](C(=O)N[C@@H](Cc1ccc(O)cc1)C(N)=O)[C@@H](C)O)C(C)C)[C@@H](C)O
# notes: Analogue of human amylin; also called compound 93
# B4: N^ε1-[(4S)-4-carboxy-4-(19-carboxynonadecanoylamino)butanoyl]-[Arg14,Arg17,Pro21,Pro27,Pro31]-h-amylin (peptide)
# peptide: K([γGlu-C20 diacid])CNTATCATQRLARFLRHSSPNFGAIPSSTPVGSNTY-NH2
# modifications: disulfide 2-7; N-terminus assumed
# SMILES: CC[C@H](C)[C@H](NC(=O)[C@H](C)NC(=O)CNC(=O)[C@H](Cc1ccccc1)NC(=O)[C@H](CC(N)=O)NC(=O)[C@@H]1CCCN1C(=O)[C@H](CO)NC(=O)[C@H](CO)NC(=O)[C@H](Cc1c[nH]cn1)NC(=O)[C@H](CCCNC(=N)N)NC(=O)[C@H](CC(C)C)NC(=O)[C@H](Cc1ccccc1)NC(=O)[C@H](CCCNC(=N)N)NC(=O)[C@H](C)NC(=O)[C@H](CC(C)C)NC(=O)[C@H](CCCNC(=N)N)NC(=O)[C@H](CCC(N)=O)NC(=O)[C@@H](NC(=O)[C@H](C)NC(=O)[C@@H]1CSSC[C@H](NC(=O)[C@@H](N)CCCCNC(=O)CC[C@H](NC(=O)CCCCCCCCCCCCCCCCCCC(=O)O)C(=O)O)C(=O)N[C@@H](CC(N)=O)C(=O)N[C@@H]([C@@H](C)O)C(=O)N[C@@H](C)C(=O)N[C@@H]([C@@H](C)O)C(=O)N1)[C@@H](C)O)C(=O)N1CCC[C@H]1C(=O)N[C@@H](CO)C(=O)N[C@@H](CO)C(=O)N[C@H](C(=O)N1CCC[C@H]1C(=O)N[C@H](C(=O)NCC(=O)N[C@@H](CO)C(=O)N[C@@H](CC(N)=O)C(=O)N[C@H](C(=O)N[C@@H](Cc1ccc(O)cc1)C(N)=O)[C@@H](C)O)C(C)C)[C@@H](C)O
# notes: Analogue of human amylin; also called compound 63
# B5: N^ε1-[(4S)-4-carboxy-4-(19-carboxynonadecanoylamino)butanoyl]-[Arg14,Arg17,Pro21,Pro27]-h-amylin (peptide)
# peptide: K([γGlu-C20 diacid])CNTATCATQRLARFLRHSSPNFGAIPSSTNVGSNTY-NH2
# modifications: disulfide 2-7; N-terminus assumed
# SMILES: CC[C@H](C)[C@H](NC(=O)[C@H](C)NC(=O)CNC(=O)[C@H](Cc1ccccc1)NC(=O)[C@H](CC(N)=O)NC(=O)[C@@H]1CCCN1C(=O)[C@H](CO)NC(=O)[C@H](CO)NC(=O)[C@H](Cc1c[nH]cn1)NC(=O)[C@H](CCCNC(=N)N)NC(=O)[C@H](CC(C)C)NC(=O)[C@H](Cc1ccccc1)NC(=O)[C@H](CCCNC(=N)N)NC(=O)[C@H](C)NC(=O)[C@H](CC(C)C)NC(=O)[C@H](CCCNC(=N)N)NC(=O)[C@H](CCC(N)=O)NC(=O)[C@@H](NC(=O)[C@H](C)NC(=O)[C@@H]1CSSC[C@H](NC(=O)[C@@H](N)CCCCNC(=O)CC[C@H](NC(=O)CCCCCCCCCCCCCCCCCCC(=O)O)C(=O)O)C(=O)N[C@@H](CC(N)=O)C(=O)N[C@@H]([C@@H](C)O)C(=O)N[C@@H](C)C(=O)N[C@@H]([C@@H](C)O)C(=O)N1)[C@@H](C)O)C(=O)N1CCC[C@H]1C(=O)N[C@@H](CO)C(=O)N[C@@H](CO)C(=O)N[C@H](C(=O)N[C@@H](CC(N)=O)C(=O)N[C@H](C(=O)NCC(=O)N[C@@H](CO)C(=O)N[C@@H](CC(N)=O)C(=O)N[C@H](C(=O)N[C@@H](Cc1ccc(O)cc1)C(N)=O)[C@@H](C)O)C(C)C)[C@@H](C)O
# notes: Analogue of human amylin; also called compound 83
# Key:
# rat calcitonin receptor [1] = biological target: T1, rat calcitonin receptor; test: SPA competition vs 125I-calcitonin, membranes of BHK cells with rat calcitonin receptor (Assay VIII)
# rat calcitonin receptor [2] = biological target: T1, rat calcitonin receptor; test: ratio of binding IC50s: rat calcitonin receptor / rat amylin receptor (reference)
# [3] = biological target: T2, human calcitonin receptor; test: ratio of binding IC50s: human calcitonin receptor / human amylin receptor (reference)
# Outline: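 Scintillation proximity competition binding on cell membranes at 35 ng/μL with SPA beads, in 50 mM Hepes pH 7.4, 1 mM CaCl2, 5 mM MgCl₂, 0.1% OA, 0.02% Tween20. Incubated 120 min at 25° C with shaking. IC₅₀ from one-site competition fit.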
# [4] = biological target: T3, rat amylin receptor (rat calcitonin …); test: SPA competition vs 125I-rat amylin, membranes of BHK cells with rat calcitonin receptor + rat RAMP3 (Assay VI)
Binder,IC50 (rat calcitonin receptor [1]) [nM],Ratio rCT/rAmylin binding (rat calcitonin receptor [2]),Ratio hCT/hAmylin binding [3],IC50 [4] [nM]
B1,442,110,91.4,4.03
B2,108,93.2,82.4,1.16
B3,131,83.2,101,1.58
B4,124,35.6,157,3.48
B5,140,49.7,146,2.83

# Source: US20140087995A1 (published 2014)
